Our source for the fold reduction of affinity against untreated PKD1 values is article PMC2064808.

The experiment deals with GST-β3 integrin cytodomain (human) (UniProt P05106). Briefly: ELISA. In general terms: In an ELISA, binding on a coated surface is turned into a signal by an enzyme label.
Sequence of UniProt P05106 (P05106 27-788): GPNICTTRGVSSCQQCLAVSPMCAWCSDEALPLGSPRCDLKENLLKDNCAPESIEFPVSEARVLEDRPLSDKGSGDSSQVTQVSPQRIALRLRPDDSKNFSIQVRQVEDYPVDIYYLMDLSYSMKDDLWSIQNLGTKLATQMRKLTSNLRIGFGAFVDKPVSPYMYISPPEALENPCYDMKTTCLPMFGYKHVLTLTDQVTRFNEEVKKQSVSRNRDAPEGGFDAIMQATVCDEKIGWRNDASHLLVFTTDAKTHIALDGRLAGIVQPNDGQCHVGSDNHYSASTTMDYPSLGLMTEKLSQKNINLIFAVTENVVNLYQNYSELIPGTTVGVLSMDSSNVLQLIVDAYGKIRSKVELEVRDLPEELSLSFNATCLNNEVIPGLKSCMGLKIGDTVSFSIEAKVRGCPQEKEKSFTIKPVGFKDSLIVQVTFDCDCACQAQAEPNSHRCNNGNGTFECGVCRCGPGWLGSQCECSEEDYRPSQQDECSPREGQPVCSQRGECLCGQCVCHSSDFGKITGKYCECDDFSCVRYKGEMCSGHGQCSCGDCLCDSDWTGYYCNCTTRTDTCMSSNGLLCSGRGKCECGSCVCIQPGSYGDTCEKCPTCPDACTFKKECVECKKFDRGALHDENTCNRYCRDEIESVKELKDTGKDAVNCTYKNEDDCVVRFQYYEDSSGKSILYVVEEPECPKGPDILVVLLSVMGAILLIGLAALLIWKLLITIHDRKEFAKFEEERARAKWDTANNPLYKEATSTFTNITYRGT

B1: His-PKD1 treated with alkaline phosphatase (enzyme)
chain: MSVPPLLRPPSPLLPAAAAVAAAAAALVPGSGPAPFPAPGAAPAGGISFHLQIGLSREPVLLLQDSSGDYSLAHVREMACSIVDQKFPECGFYGLYDKILLFRHDPASDNILQLVKIASDIQEGDLIEVVLSASATFEDFQIRPHALFVHSYRAPAFCDHCGEMLWGLVRQGLKCEGCGLNYHKRCAFKIPNNCSGVRRRRLSNVSLTGLGTVRTASAEFSTSVPDEPLLSPVSPGFEQKSPSESFIGREKRSNSQSYIGRPIQLDKLLMSKVKVPHTFVIHSYTRPTVCQFCKKLLKGLFRQGLQCKDCRFNCHKRCAPKVPNNCLGEVTINGELLSPGAESDVVMEEGSDDNDSERNSGLMDDMDEAMVQDTEMALAEGQSGGAEMQDPDADQEDSNRTISPSTSNNIPLMRVVQSVKHTKRRSSTVMKEGWMVHYTSKDTLRKRHYWRLDSKCITLFQNDTGSRYYKEIPLSEILCLEPAKPSALTPVGATPHCFEITTANVVYYVGENVVNPSSSPPNNSVLPSGIGPDVARMWEVAIQHALMPVIPKGSSVGSGSNSHKDISVSISVSNCQIQENVDISTVYQIFPDEVLGSGQFGIVYGGKHRKTGRDVAIKIIDKLRFPTKQESQLRNEVAILQNLHHPGVVNLECMFETPERVFVVMEKLHGDMLEMILSSEKGRLPEHITKFLITQILVALRHLHFKNIVHCDLKPENVLLASADPFPQVKLCDFGFARIIGEKSFRRSVVGTPAYLAPEVLRNKGYNRSLDMWSVGVIIYVSLSGTFPFNEDEDIHDQIQNAAFMYPPNPWKEISHEAIDLINNLLQVKMRKRYSVDKTLSHPWLQDYQTWLDLRELECRIGERYITHESDDSRWEQYAGEQGLQYPAHLISLSASHSDSPEAEEREMKALSERVSIL
modifications: ~80% dephosphorylation of the kinase by alkaline phosphatase
B1: the fold reduction of affinity against untreated PKD1 is 5 fold.
